Results on 1 substance are retold here after FireProtDB (doi:10.1021/bi962155i).

Values joined by “and” are separate entries in the source; they are usually repeats but may differ in a detail not shown here. Equal values may be shown once.

For this series the following is noted: Saccharomyces cerevisiae (strain ATCC 204508 / S288c), pH 5, CD, Sodium acetate buffer, reversible: yes.

Sequence of Cytochrome c isoform 1 wild type, P00044 (P00044 whole entry, canonical isoform): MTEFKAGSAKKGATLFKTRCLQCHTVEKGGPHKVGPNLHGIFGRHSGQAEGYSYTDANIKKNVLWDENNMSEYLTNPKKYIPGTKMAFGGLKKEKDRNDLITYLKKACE

As to “Cytochrome c isoform 1 wild type, P00044”, under “5 °C, GdnHCl”, the denaturant m value came to 5.4 kcal/mol/M, the “denaturant midpoint (higher = more stable)” value came out at 1.4 M and the unfolding free energy was determined as 7.8 kcal/mol. For the setting “Thermal”, the “unfolding enthalpy (calorimetric)” value is 91.8 kcal/mol and 42.8 kcal/mol.
